Measured values from US6545141.

Molecular target: T7 peptide-added FC99 protein having T7 peptide added to the N-terminal of the amino acid sequence described as SEQ ID NO: 1 (human) (UniProt Q92529)
Experiment: cell-based or functional assay

Sequence of UniProt Q92529 (Q92529 other isoform, or with tags, fused parts or gaps limits assumed): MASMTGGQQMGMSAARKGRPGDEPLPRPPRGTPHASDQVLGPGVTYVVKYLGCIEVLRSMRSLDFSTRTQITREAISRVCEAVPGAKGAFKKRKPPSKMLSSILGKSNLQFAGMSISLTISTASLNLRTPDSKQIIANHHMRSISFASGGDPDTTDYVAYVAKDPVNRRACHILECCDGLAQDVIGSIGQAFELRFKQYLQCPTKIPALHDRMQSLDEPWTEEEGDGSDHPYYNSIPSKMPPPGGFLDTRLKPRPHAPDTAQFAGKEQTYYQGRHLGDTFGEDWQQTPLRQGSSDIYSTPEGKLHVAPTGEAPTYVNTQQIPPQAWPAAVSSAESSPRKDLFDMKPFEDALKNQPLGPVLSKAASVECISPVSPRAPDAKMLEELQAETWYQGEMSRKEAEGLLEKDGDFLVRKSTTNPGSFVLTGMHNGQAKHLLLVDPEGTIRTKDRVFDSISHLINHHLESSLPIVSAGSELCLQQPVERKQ

Substance: TrkB receptor activated by the administration of BDNF
- BDNF-dependent increase in the tyrosine phosphorylation of the FC99 protein (band densities of Lanes 2 and 3, NIH Image): 2 fold
